# Test results taken from the supplement of paper PMC11246515.
# ± gives the standard deviation of the averaged measurements.
# Test: total protein half-life in vivo (active degradation + dilution); higher = more stable protein
# [1] = E. coli NCM3722 delta-clpP delta-lon delta-hslV, growth: N-lim chemostat, doubling time 6 h
# [2] = E. coli NCM3722 delta-clpP, growth: N-lim chemostat, doubling time 6 h
# [3] = E. coli NCM3722 delta-hslV, growth: N-lim chemostat, doubling time 6 h
# [4] = wild type E. coli NCM3722, growth: C-lim chemostat, doubling time 3 h
# [5] = wild type E. coli NCM3722, growth: C-lim chemostat, doubling time 6 h
# [6] = wild type E. coli NCM3722, growth: C-lim chemostat, doubling time 12 h
# [7] = wild type E. coli NCM3722, growth: P-lim chemostat, doubling time 6 h
# [8] = wild type E. coli NCM3722, growth: P-lim chemostat, doubling time 12 h
# [9] = E. coli NCM3722 delta-lon, growth: N-lim chemostat, doubling time 6 h
# [10] = E. coli NCM3722 delta-smpB, growth: N-lim chemostat, doubling time 6 h
# [11] = wild type E. coli NCM3722, growth: N-lim chemostat, doubling time 6 h
# [12] = wild type E. coli NCM3722, growth: N-lim chemostat, doubling time 12 h
Sequence,total protein half-life in vivo [1],total protein half-life in vivo [2],total protein half-life in vivo [3],total protein half-life in vivo [4],total protein half-life in vivo [5],total protein half-life in vivo [6],total protein half-life in vivo [7],total protein half-life in vivo [8],total protein half-life in vivo [9],total protein half-life in vivo [10],total protein half-life in vivo [11],total protein half-life in vivo [12]
MAVIQDIIAALWQHDFAALADPHIVSVVYFVMFATLFLENGLLPASFLPGDSLLILAGALIAQGVMDFLPTIAILTAAASLGCWLSYIQGRWLGNTKTVKGWLAQLPAKYHQRATCMFDRHGLLALLAGRFLAFVRTLLPTMAGISGLPNRRFQFFNWLSGLLWVSVVTSFGYALSMIPFVKRHEDQVMTFLMILPIALLTAGLLGTLFVVIKKKYCNA [P0AA60],4.46 h,4.55 h,3.26 h,2.23 h,4.04 ± 1.4 h,7.25 h,> 8 h,8.67 h,,,,
MKRLIVGISGASGAIYGVRLLQVLRDVTDIETHLVMSQAARQTLSLETDFSLREVQALADVTHDARDIAASISSGSFQTLGMVILPCSIKTLSGIVHSYTDGLLTRAADVVLKERRPLVLCVRETPLHLGHLRLMTQAAEIGAVIMPPVPAFYHRPQSLDDVINQTVNRVLDQFAITLPEDLFARWQGA [P0AG03],5.38 ± 0.31 h,4.35 ± 0.49 h,4.3 ± 0.56 h,3.22 ± 0.35 h,6.52 ± 0.94 h,11.2 ± 1.5 h,5.53 ± 0.22 h,11.9 ± 0.56 h,4.77 ± 0.86 h,4.678 ± 0.041 h,4.09 ± 0.35 h,7.54 ± 1 h
MTQNIRPLPQFKYHPKPLETGAFEQDKTVECDCCEQQTSVYYSGPFYCVDEVEHLCPWCIADGSAAEKFAGSFQDDASIEGVEFEYDEEDEFAGIKNTYPDEMLKELVERTPGYHGWQQEFWLAHCGDFCVFIGYVGWNDIKDRLDEFANLEEDCENFGIRNSDLAKCLQKGGHCQGYLFRCLHCGKLRLWGDFS,5.27 h,,,,,,,,,,,
MSHLKDPTTQYYTGEYPKQKQPTPGIQAKMTPVPDCGEKTYVGSGRLKDRKALVTGGDSGIGRAAAIAYAREGADVAISYLPVEEEDAQDVKKIIEECGRKAVLLPGDLSDEKFARSLVHEAHKALGGLDIMALVAGKQVAIPDIADLTSEQFQKTFAINVFALFWLTQEAIPLLPKGASIITTSSIQAYQPSPHLLDYAATKAAILNYSRGLAKQVAEKGIRVNIVAPGPIWTALQISGGQTQDKIPQFGQQTPMKRAGQPAELAPVYVYLASQESSYVTAEVHGVCGGEHLG [P0AG84],5.31 ± 0.2 h,5.27 ± 0.099 h,5.82 ± 0.34 h,3.13 ± 0.54 h,6.3 ± 0.59 h,11.4 ± 2.8 h,5.5 ± 0.43 h,10.73 ± 0.025 h,5.57 ± 0.34 h,5.06 ± 0.66 h,5.32 ± 0.27 h,9.18 ± 0.35 h
MNDEMKGKSGKVKVMYVRSDDDSDKRTHNPRTGKGGGRPGKSRADGGRRPARDDKQSQPRDRKWEDSPWRTVSRAPGDETPEKADHGGISGKSFIDPEVLRRQRAEETRVYGENACQALFQSRPEAIVRAWFIQSVTPRFKEALRWMAANRKAYHVVDEAELTKASGTEHHGGVCFLIKKRNGTTVQQWVSQAGAQDCVLALENESNPHNLGGMMRSCAHFGVKGVVVQDAALLESGAAIRTAEGGAEHVQPITGDNIVNVLDDFRQAGYTVVTTSSEQGKPLFKTSLPAKMVLVLGQEYEGLPDAARDPNDLRVKIDGTGNVAGLNISVATGVLLGEWWRQNKA [P0AGJ5],,5.71 ± 0.11 h,4.87 ± 0.12 h,2.91 ± 0.33 h,5.57 ± 0.52 h,10.3 ± 0.99 h,5.4 ± 0.26 h,10.9 ± 0.76 h,5.2 ± 0.25 h,4.77 ± 0.058 h,5.53 ± 0.15 h,10.7 ± 1.5 h
MDIIFYHPTFDTQWWIEALRKAIPQARVRAWKSGDNDSADYALVWHPPVEMLAGRDLKAVFALGAGVDSILSKLQAHPEMLNPSVPLFRLEDTGMGEQMQEYAVSQVLHWFRRFDDYRIQQNSSHWQPLPEYHREDFTIGILGAGVLGSKVAQSLQTWRFPLRCWSRTRKSWPGVQSFAGREELSAFLSQCRVLINLLPNTPETVGIINQQLLEKLPDGAYLLNLARGVHVVEDDLLAALDSGKVKGAMLDVFNREPLPPESPLWQHPRVTITPHVAAITRPAEAVEYISRTIAQLEKGERVCGQVDRARGY,5.02 ± 0.051 h,4.58 ± 0.51 h,5.71 ± 1.3 h,2.69 ± 0.43 h,5.64 ± 0.55 h,10.3 ± 1.4 h,5.821 ± 0.027 h,11 ± 0.45 h,4.67 ± 0.34 h,4.43 ± 0.24 h,4.45 ± 0.25 h,7.3 ± 0.49 h
MSGLRPALSTFIFLLLITGGVYPLLTTVLGQWWFPWQANGSLIREGDTVRGSALIGQNFTGNGYFHGRPSATAEMPYNPQASGGSNLAVSNPELDKLIAARVAALRAANPDASASVPVELVTASASGLDNNITPQAAAWQIPRVAKARNLSVEQLTQLIAKYSQQPLVKYIGQPVVNIVELNLALDKLDE,,,4.28 h,,,,,11.7 ± 2.1 h,,,,
METVFDALKAMGKATSIELAARLDISREEVLNELWELKKAGFVDKSAYTWRVADNNVQQEQPAQAELPEEITTATVAKISECDLTATIEQRGPQTADELATLFGTTSRKVASTLAMAISKGRLIRVNQGGKFRYCIPGDNLPAEPKAASVSPLWLSASSSACHGVLIITVITPSPTKNSATKMPEN,5.08 ± 0.26 h,,,1.42 h,,,,,,1.14 h,,
MSLNFLDFEQPIAELEAKIDSLTAVSRQDEKLDINIDEEVHRLREKSVELTRKIFADLGAWQIAQLARHPQRPYTLDYVRLAFDEFDELAGDRAYADDKAIVGGIARLDGRPVMIIGHQKGRETKEKIRRNFGMPAPEGYRKALRLMQMAERFKMPIITFIDTPGAYPGVGAEERGQSEAIARNLREMSRLGVPVVCTVIGEGGSGGALAIGVGDKVNMLQYSTYSVISPEGCASILWKSADKAPLAAEAMGIIAPRLKELKLIDSIIPEPLGGAHRNPEAMAASLKAQLLADLADLDVLSTEDLKNRRYQRLMSYGYA [P0ABD5],6.13 ± 0.7 h,,6.72 ± 0.71 h,3.63 ± 0.15 h,7.76 ± 0.089 h,12.5 ± 0.96 h,6.27 ± 0.27 h,13.9 ± 1.9 h,7.18 ± 0.38 h,5.526 ± 0.043 h,6.34 ± 0.58 h,11.4 ± 2.5 h
MKILIVEDDTLLLQGLILAAQTEGYACDSVTTARMAEQSLEAGHYSLVVLDLGLPDEDGLHFLARIRQKKYTLPVLILTARDTLTDKIAGLDVGADDYLVKPFALEELHARIRALLRRHNNQGESELIVGNLTLNMGRRQVWMGGEELILTPKEYALLSRLMLKAGSPVHREILYNDIYNWDNEPSTNTLEVHIHNLRDKVGKARIRTVRGFGYMLVANEEN,6.35 ± 0.76 h,5.04 ± 0.91 h,4.7 ± 0.14 h,,5.33 ± 0.18 h,9.36 ± 0.56 h,4.89 ± 0.26 h,9.22 ± 0.027 h,4.71 ± 0.34 h,3.93 ± 0.24 h,5.55 ± 1.2 h,7.56 ± 0.27 h
MARKWLNLFAGAALSFAVAGNALADEGKITVFAAASLTNAMQDIATQFKKEKGVDVVSSFASSSTLARQIEAGAPADLFISADQKWMDYAVDKKAIDTATRQTLLGNSLVVVAPKASVQKDFTIDSKTNWTSLLNGGRLAVGDPEHVPAGIYAKEALQKLGAWDTLSPKLAPAEDVRGALALVERNEAPLGIVYGSDAVASKGVKVVATFPEDSHKKVEYPVAVVEGHNNATVKAFYDYLKGPQAAEIFKRYGFTIK,5.7 ± 0.29 h,5.9 ± 0.53 h,6.46 ± 0.2 h,2.87 ± 0.23 h,6.01 ± 0.3 h,12.8 ± 0.23 h,6.64 ± 0.41 h,13.7 ± 0.95 h,6.16 ± 0.47 h,6.39 ± 0.36 h,5.9 ± 0.19 h,12.7 ± 0.75 h
MKGGKRVQTARPNRINGEIRAQEVRLTGLEGEQLGIVSLREALEKAEEAGVDLVEISPNAEPPVCRIMDYGKFLYEKSKSSKEQKKKQKVIQVKEIKFRPGTDEGDYQVKLRSLIRFLEEGDKAKITLRFRGREMAHQQIGMEVLNRVKDDLQELAVVESFPTKIEGRQMIMVLAPKKKQ [P0A707],5.98 ± 0.11 h,5.66 ± 0.61 h,5.02 ± 0.54 h,3.35 ± 0.084 h,5.555 ± 0.039 h,10.5 ± 0.76 h,4.89 ± 0.27 h,10.4 ± 0.88 h,6.492 ± 0.032 h,5.12 ± 0.1 h,4.69 ± 0.57 h,10.9 ± 1.7 h
MTTNYIFVTGGVVSSLGKGIAAASLAAILEARGLNVTIMKLDPYINVDPGTMSPIQHGEVFVTEDGAETDLDLGHYERFIRTKMSRRNNFTTGRIYSDVLRKERRGDYLGATVQVIPHITNAIKERVLEGGEGHDVVLVEIGGTVGDIESLPFLEAIRQMAVEIGREHTLFMHLTLVPYMAASGEVKTKPTQHSVKELLSIGIQPDILICRSDRAVPANERAKIALFCNVPEKAVISLKDVDSIYKIPGLLKSQGLDDYICKRFSLNCPEANLSEWEQVIFEEANPVSEVTIGMVGKYIELPDAYKSVIEALKHGGLKNRVSVNIKLIDSQDVETRGVEILKGLDAILVPGGFGYRGVEGMITTARFARENNIPYLGICLGMQVALIDYARHVANMENANSTEFVPDCKYPVVALITEWRDENGNVEVRSEKSDLGGTMRLGAQQCQLVDDSLVRQLYNAPTIVERHRHRYEVNNMLLKQIEDAGLRVAGRSGDDQLVEIIEVPNHPWFVACQFHPEFTSTPRDGHPLFAGFVKAASEFQKRQAK [P0A7E5],6.37 ± 0.47 h,5.64 ± 0.39 h,5.16 ± 0.13 h,3.06 ± 0.25 h,6.11 ± 0.39 h,12.3 ± 1.2 h,6.161 ± 0.058 h,13.1 ± 0.8 h,5.75 ± 0.15 h,5.11 ± 0.71 h,5.2 ± 0.22 h,9.4 ± 0.35 h
MLINIGRLLMLCVWGFLILNLVHPFPRPLNIFVNVALIFTVLMHGMQLALLKSTLPKDGPQMTTAEKVRIFLFGVFELLAWQKKFKVKK,6.84 h,,7.72 h,3.25 h,,,6.22 h,12.6 h,6.85 h,6.18 h,4.21 h,
MKIRSLSRFVLASTMFASFTASAVPGLWQQGYGQGNAEYSVTDASGKMFTINCTGNPDQNGIYQHSVFLILAGDKTVSSHDDSTGITVVMDHKQYAIPSTLGWRNGDNAWFSFIMDIRKARQFDVYVNDQKVGSFNPDVRNAQKVLPTLADCTND,,,,1.45 h,,,,,,,,
MRIHSPYPASWALAQRIGYLYSEGEIIYLADTPFERLLDIQRQVGQCQTMTSLSQADFEARLEAVFHQNTGESQQIAQDIDQSVDLLSLSEEMPANEDLLNEDSAAPVIRLINAILSEAIKETASDIHIETYEKTMSIRFRIDGVLRTILQPNKKLAALLISRIKVMARLDIAEKRIPQDGRISLRIGRRNIDVRVSTLPSIYGERAVLRLLDKNSLQLSLNNLGMTAADKQDLENLIQLPHGIILVTGPTGSGKSTTLYAILSALNTPGRNILTVEDPVEYELEGIGQTQVNTRVDMSFARGLRAILRQDPDVVMVGEIRDTETAQIAVQASLTGHLVLSTLHTNSASGAVTRLRDMGVESFLLSSSLAGIIAQRLVRRLCPQCRQFTPVSPQQAQMFKYHQLAVTTIGTPVGCPHCHQSGYQGRMAIHEMMVVTPELRAAIHENVDEQALERLVRQQHKALIKNGLQKVISGDTSWDEVMRVASATLESEA,6.61 h,,,,,,,,,,,
MTALNKKWLSGLVAGALMAVSVGTLAAEQKTLHIYNWSDYIAPDTVANFEKETGIKVVYDVFDSNEVLEGKLMAGSTGFDLVVPSASFLERQLTAGVFQPLDKSKLPEWKNLDPELLKLVAKHDPDNKFAMPYMWATTGIGYNVDKVKAVLGENAPVDSWDLILKPENLEKLKSCGVSFLDAPEEVFATVLNYLGKDPNSTKADDYTGPATDLLLKLRPNIRYFHSSQYINDLANGDICVAIGWAGDVWQASNRAKEAKNGVNVSFSIPKEGAMAFFDVFAMPADAKNKDEAYQFLNYLLRPDVVAHISDHVFYANANKAATPLVSAEVRENPGIYPPADVRAKLFTLKVQDPKIDRVRTRAWTKVKSGK,4.64 ± 0.23 h,6.13 ± 0.89 h,6.35 ± 0.38 h,2.94 ± 0.29 h,6.34 ± 0.41 h,13 ± 0.15 h,6.46 ± 0.65 h,13.7 ± 1.1 h,7 ± 1.2 h,5.81 ± 0.13 h,6.215 ± 0.018 h,12.89 ± 0.11 h
